These results are taken from PMC4623018, “Studies on the catalytic domains of multiple JmjC oxygenases using peptide substrates” (Epigenetics, 2014).

Ends that are not written are not given here. Me3 = trimethyl on the lysine side-chain amine

The target in the test is T1, KDM4A catalytic domain (human, UniProt O75164 1-359).
T1 construct: The limits 1-359 are those of the KDM4A catalytic domain used in the activity assays; also called KDM4A (1–359); 4A(1–359); source: E. coli, purified as previously described
T1 sequence (looked up): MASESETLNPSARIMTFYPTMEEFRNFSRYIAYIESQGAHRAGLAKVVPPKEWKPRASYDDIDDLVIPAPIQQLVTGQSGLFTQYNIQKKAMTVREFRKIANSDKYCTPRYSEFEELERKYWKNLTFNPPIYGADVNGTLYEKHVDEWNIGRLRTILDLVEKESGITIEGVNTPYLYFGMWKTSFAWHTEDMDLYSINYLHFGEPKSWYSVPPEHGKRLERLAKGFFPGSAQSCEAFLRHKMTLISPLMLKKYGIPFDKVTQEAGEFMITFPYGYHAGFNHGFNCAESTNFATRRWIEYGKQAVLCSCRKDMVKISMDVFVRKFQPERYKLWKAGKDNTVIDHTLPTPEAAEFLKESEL
The experiment in a line: crystal structure; KDM4A catalytic domain complexed with H3K27me3 peptides (25 residue and 5 residue). The conditions noted are these: both partners purified.

B1: 5 residue H3K27me3 peptide (peptide, UniProt P68431 26-30, looked up)
peptide: ARK(Me3)SA
notes: histone H3 fragment, residues 25-29; also called H3(25–29)K27me3
On to B1, for which the binding result was “binds”.
